Patent publication US7691579B2, “Methods and compositions for producing an enhanced immune response to a human papillomavirus immunogen” (priority 2005, dated 2010)
Values joined by “and” are separate entries in the source; they are usually repeats but may differ in a detail not shown here. Equal values may be shown once.

Key:
HPV16 pseudovirus = assay: Quantitative HPV16 pseudovirus neutralization assay with sera of vaccinated rabbits; format: in vivo; details: individual vaccinated rabbits
Text: Development of Antibody Response to L1-VLP: To analyze the effect of the GM-CSF/anti-CD40 antibody combination on antibody response, an ELISA assay was employed to measure the titre of anti-L1-VLP antibodies in mice immunized with the chimeric L1-VLP-L2-E2-E7 construct, with or without the GM-CSF/anti-CD40 antibody combination. Both groups of mice produced high titers of anti-L1 VLP antibodies (FIG. 9). There is no detectable anti-L1 VLP antibody in the serum of mice immunized with E7 peptide in combination with GM-CSF and anti-CD40 in IFA, as expected. […] To confirm the prophylactic potential of the chimeric L1-VLP-L2-E7-E2 construct, the anti body titers raised against the chimeric L1-VLP-E7 E2 construct and the L1-VLPs were compared using a recently developed quantitative HPV16 pseudovirus neutralization assay. […]
To test whether the combination of VLP-E7E2 with immune-modulators affects the antibody response, the titer of anti-L1-VLP antibodies was evaluated by ELISA. […] To confirm the prophylactic potential of the chimeric VLPs, we compared the antibody titers raised against the chimeric VLP-E7E2 and wild type VLPs, using a recently developed quantitative HPV16 pseudovirus neutralization assay. […]

CD11c+ dendritic cells = assay: FACScan analysis of dendritic cells in draining lymph nodes of immunized mice; format: in vivo, HLA-A2 transgenic mice (AAD); details: in VLP-E7E2 immunized mice, aqueous solution
Protocol: Draining lymph nodes were collected six days after immunization for FACScan analysis. Mice are immunized with 10 μg of chimeric VLP-E7 with or without GM-CSF or an anti-CD40L antibody. Draining inguinal lymph nodes are collected one week after immunization for FACScan analysis. The immunization protocols employed are as follows: Panel A—VLP-E7; Panel B—VLP-E7F+GM-CSF; Panel C—VLP-E7+anti-CD40 antibody; Panel D—VLP-E7+GM-CSF+anti-CD40 antibody. For Data 003, 010, 017, and 024, the percentage of gated is the sum of the number from the upper left and upper right quadrants. For the rest of the data, the percentage of gated is the number from the upper right quadrant indicating the CD80, CD 86 and CD40 positive cells.
Flow cytometric analysis and Abs: Lymph node cells (1×10^6) are taken from mice one week after immunization. […] Data files are analyzed using CellQuest software (BD Biosciences, Mountain View, Calif.).
DCS Play An Important Role In VLP-E7E2/GM-CSF/Anti-CD40 Induced CTL Response In Vivo: It is known that GM-CSF and anti-CD40 play important roles in DC activation (Gurunathan, S. et al. 1998 J. Immunol. 161:4563-4571; Ahlers, J. D. et al. 1997 PNAS USA 94:10856-10861). […] In the Examples reported herein, the phenotypic changes of DC in the draining lymph nodes (DLN) of vaccinated mice were analyzed. […]

[1] = system: EL-4 target cells pulsed with E7 49-57 peptides; assay: CTL assay (51Cr release) with spleen cells of immunized C57BL/6 mice; format: in vivo; details: given in aqueous solution with VLP-E7E2
Protocol: (§1) Immunization: Mice were immunized subcutaneously at the base of the tail with the chimeric VLPs. GM-CSF (Preprotech, Rocky Hill, N.J.) was given the day before and the same day as the VLP injection. Anti-CD40 (SouthernBiotech, Birmingham Ala.) was given with the VLP. Mice were also immunized with 50 nmoles of peptide in incomplete Freund's adjuvant (IFA) with or without GM-CSF (5 μg/mouse) and anti-CD40 (10 μg/mouse). All vaccines were prepared immediately prior to injection. Each group had 4 mice, and the pooled spleen cells from four mice were used for assays. 10 μg of VLP-E7E2 was given to a mouse. The MW of the VLP-E7E2 is about 5280 Kd (72×L1@55 Kd=3960 Kd, and 12×L2E7E2@110 kd=1320 Kd). The number of moles of VLP-E7E2 in 10 μg of total protein is about […].
(§2) CTL assay: Two (or three) weeks after immunization, spleens were aseptically removed and single cell suspensions are prepared. […] Cytolytic activity of cells is measured by a 4-h assay with ^51Cr-labeled EL-4 or C1R.AAD target cells in triplicate wells. Percent ^51Cr release is calculated as 100×(experimental release-spontaneous release)/(maximum release-spontaneous release). Maximum release is determined from supernatants of cells that are lysed by addition of […]. Spontaneous release is determined from target cells culture in medium. Data are expressed as an average from triplicate wells. […]

[2] = system: C1R.AAD target cells pulsed with E7 11-20 and E7 86-93 peptides; assay: CTL assay (51Cr release) with spleen cells of immunized AAD mice, response to E7; format: in vivo, HLA-A2 transgenic mice (AAD); details: co-injected in aqueous solution
Protocol: as §1, §2

Which neutralizing titers (HPV16 pseudovirus; listed as L1-VLP construct) does the source give for “L1-VLP: VLP of the full length L1 capsid protein of HPV16, control” here?
Its neutralizing titers is 40,960 and 163,840.

What about the neutralizing titers (HPV16 pseudovirus; listed as wild type VLPs) of the same molecule?
The neutralizing titers was 163,840.

B1: GM-CSF: murine granulocyte/macrophage colony stimulating factor (Preprotech) (protein, UniProt P01587 18-141, looked up)
Granulocyte-macrophage …: APTRSPITVTRPWKHVEAIKEALNLLDDMPVTLNEEVEVVSNEFSFKKLTCVQTRLKIFEQGLRGNFTKLKGALNMTASYYQTYCPPTPETDCETQVTTYADFIDSLKTFLTDIPFECKKPGQK
B1 was tested. Which “recruitment or activation of the DCs” value (CD11c+ dendritic cells) did it give?
The value was “no effect”.

What about the “effect on the VLP-E7E2 induced CTL response” value [1] of the same molecule?
The value was “no effect”.

What about the “effect of co-injection on the VLP-E7E2-induced CTL response to E7” value [2] of the same molecule?
The value was “no effect”.
